Assay results from the Human Domainome abundance scans (Beltran et al. 2025).
± gives the uncertainty stated by the source.

B1: SWI/SNF-related matrix-associated actin-dependent regulator of chromatin subfamily B member 1, residues 181 to 248; numbered along this chain, Q12824 (parent)
chain: SQPEVLVPIRLDMEIDGQKLRDAFTWNMNEKLMTPEMFSEILCDDLDLNPLTFVPAIASAIRQQIESY

Variants of: B1
Assay: abundance fitness (aPCA) (normalised: wild type 0, dead -1); higher = more abundant; growth selection in yeast, the domain comes from the species named
Settings: Homo sapiens

Variant	abundance fitness
SQPEVLVPIRLDMEIDGQKLRDAATWNMNEKLMTPEMFSEILCDDLDLNPLTFVPAIASAIRQQIESY [F24A]	-0.974 ± 0.099
SQPEVLVPIRLDMEIDGQKLLDAFTWNMNEKLMTPEMFSEILCDDLDLNPLTFVPAIASAIRQQIESY [R21L]	-0.204 ± 0.062
SQPEVLVPTRLDMEIDGQKLRDAFTWNMNEKLMTPEMFSEILCDDLDLNPLTFVPAIASAIRQQIESY [I9T]	-0.701 ± 0.21
SQPESLVPIRLDMEIDGQKLRDAFTWNMNEKLMTPEMFSEILCDDLDLNPLTFVPAIASAIRQQIESY [V5S]	-0.174 ± 0.11
SQPEVLVPIRLDMEIDGQKLRDAFTWNMNEKLMTPEMFSGILCDDLDLNPLTFVPAIASAIRQQIESY [E40G]	-0.347 ± 0.036
SQPEVLVPIRLDMEIDGQKFRDAFTWNMNEKLMTPEMFSEILCDDLDLNPLTFVPAIASAIRQQIESY [L20F]	-0.011 ± 0.1
SQPEVLVPIRLDMEIDGQKLRDAFTWNVNEKLMTPEMFSEILCDDLDLNPLTFVPAIASAIRQQIESY [M28V]	-0.086 ± 0.14
SQPEVLVPIRLDMKIDGQKLRDAFTWNMNEKLMTPEMFSEILCDDLDLNPLTFVPAIASAIRQQIESY [E14K]	-0.334 ± 0.45
SQPEVLVPIRLDMEIDGQKLRDAFTWNMNEKLATPEMFSEILCDDLDLNPLTFVPAIASAIRQQIESY [M33A]	-0.563 ± 0.091
SQPEVLVPIRLDMEIDGQKLRDAFTWNMNEKLMTPEMFSEILCDDLDLYPLTFVPAIASAIRQQIESY [N49Y]	-0.666 ± 0.11
SQPEVLVPIRLDMEIDGQKLRDAFTWNMNEKLMTPEMFSEILCDDLDLNPLTFVPAIASAIREQIESY [Q63E]	-0.163 ± 0.11
SQPLVLVPIRLDMEIDGQKLRDAFTWNMNEKLMTPEMFSEILCDDLDLNPLTFVPAIASAIRQQIESY [E4L]	-0.292 ± 0.056
SQPEVLVPIRLDMEIDGQKLRDAFTWNMNEKLMTPEMFSEILCDDTDLNPLTFVPAIASAIRQQIESY [L46T]	-0.954 ± 0.24
SQPEVLVPIRLDMEIDGQKLMDAFTWNMNEKLMTPEMFSEILCDDLDLNPLTFVPAIASAIRQQIESY [R21M]	-0.073 ± 0.085
SQPEVLVPIRLDMEIDGQKLRDAFGWNMNEKLMTPEMFSEILCDDLDLNPLTFVPAIASAIRQQIESY [T25G]	-0.544 ± 0.049
SQPEVLVPIRLDMEIDGQKLRDAFTWNMNEKLMTPEMFSEILLDDLDLNPLTFVPAIASAIRQQIESY [C43L]	-0.808 ± 0.083
SQPEVLVPIRLDMEIDGQKLRDAETWNMNEKLMTPEMFSEILCDDLDLNPLTFVPAIASAIRQQIESY [F24E]	-0.763 ± 0.15
SQPEVLVPIRLDMEIDGQKLRDAFTWNMNEKLMTPEMFSEIICDDLDLNPLTFVPAIASAIRQQIESY [L42I]	-0.005 ± 0.082
SQPEVIVPIRLDMEIDGQKLRDAFTWNMNEKLMTPEMFSEILCDDLDLNPLTFVPAIASAIRQQIESY [L6I]	-0.03 ± 0.43
SQPEVLVPIRLDMEIDGQKLRDAFTWNMNEKLMTPEMMSEILCDDLDLNPLTFVPAIASAIRQQIESY [F38M]	-0.637 ± 0.48

Variant	abundance fitness
SQPEVLVPIRLDMEIDGQKLRDAFTWNMNEKLMTPEMFSEILCDDLDGNPLTFVPAIASAIRQQIESY [L48G]	-0.66 ± 0.077
SQPEVLVPIRLDMEIDGQKLRDAFTWNMNEKLMTPEMFSYILCDDLDLNPLTFVPAIASAIRQQIESY [E40Y]	-0.33 ± 0.082
FQPEVLVPIRLDMEIDGQKLRDAFTWNMNEKLMTPEMFSEILCDDLDLNPLTFVPAIASAIRQQIESY [S1F]	-0.132 ± 0.13
SQPEVLVRIRLDMEIDGQKLRDAFTWNMNEKLMTPEMFSEILCDDLDLNPLTFVPAIASAIRQQIESY [P8R]	-0.352 ± 0.037
SQPEVLVPIRLDVEIDGQKLRDAFTWNMNEKLMTPEMFSEILCDDLDLNPLTFVPAIASAIRQQIESY [M13V]	-0.214 ± 0.17
SQPEVLVPIRLDMEIDGQKLRDAFTWNMNEKLMTPEMFSEILCDDLYLNPLTFVPAIASAIRQQIESY [D47Y]	-0.401 ± 0.12
SQPEVLVPIRLDMEIDGQKLRDAFTWNMFEKLMTPEMFSEILCDDLDLNPLTFVPAIASAIRQQIESY [N29F]	-0.736 ± 0.28
SQPEVLVPIRLDMEIDGQKLRDAFTWNMNEKLMTPEMTSEILCDDLDLNPLTFVPAIASAIRQQIESY [F38T]	-0.722 ± 0.28
SQPEVLVPIRLDMEIDGQKLRDAFTWNMNEKLMTPEMFSEILCDDLDLNPLTFIPAIASAIRQQIESY [V54I]	-0.241 ± 0.077
SQPEVLVPIRLDMEIDGQKLRDAFTWNMNEKLMTPEMFSEILCDRLDLNPLTFVPAIASAIRQQIESY [D45R]	0.193 ± 0.15
SQPEVLVPIRLDMEIDGQKLRDAFTWNMNEKLMTPEMFSEILCDDLDLNPLTFVPPIASAIRQQIESY [A56P]	-0.564 ± 0.16
SQPEVGVPIRLDMEIDGQKLRDAFTWNMNEKLMTPEMFSEILCDDLDLNPLTFVPAIASAIRQQIESY [L6G]	-0.217 ± 0.089
TQPEVLVPIRLDMEIDGQKLRDAFTWNMNEKLMTPEMFSEILCDDLDLNPLTFVPAIASAIRQQIESY [S1T]	-0.09 ± 0.066
SQPEVLVPIRLDMERDGQKLRDAFTWNMNEKLMTPEMFSEILCDDLDLNPLTFVPAIASAIRQQIESY [I15R]	-0.722 ± 0.12
SQPEVLQPIRLDMEIDGQKLRDAFTWNMNEKLMTPEMFSEILCDDLDLNPLTFVPAIASAIRQQIESY [V7Q]	-0.937 ± 0.19
SQPEVLVPIRLEMEIDGQKLRDAFTWNMNEKLMTPEMFSEILCDDLDLNPLTFVPAIASAIRQQIESY [D12E]	-0.078 ± 0.15
SQPEVLVPIRLDMEIDGQKLRDQFTWNMNEKLMTPEMFSEILCDDLDLNPLTFVPAIASAIRQQIESY [A23Q]	0.09 ± 0.09
SQPEVLVPIRLDMEIDGQKLRDAFTWNMNEKLMTPEMFSEILCDDLDLNPLTFVPHIASAIRQQIESY [A56H]	-0.123 ± 0.081
LQPEVLVPIRLDMEIDGQKLRDAFTWNMNEKLMTPEMFSEILCDDLDLNPLTFVPAIASAIRQQIESY [S1L]	-0.021 ± 0.049
SQPEVLVPIRLDMEIDGQKLRDAFMWNMNEKLMTPEMFSEILCDDLDLNPLTFVPAIASAIRQQIESY [T25M]	0.092 ± 0.051
